Assay results: article PMC2173332
Read-outs that look alike come from different tables or passages of the source.

Legend:
[1] = biological target: acyl-CoA oxidase isoform Aox1p (Yarrowia lipolytica); assay: co-IP
[2] = biological target: acyl-CoA oxidase isoform Aox1p (Yarrowia lipolytica); assay: co-IP; remark: listed apart in the source

stoichiometry N [1] | stoichiometry N [2] | Substance
1 | 1 | acyl-CoA oxidase isoform Aox3p (enzyme)
1 | 1 | acyl-CoA oxidase isoform Aox2p (enzyme)
1 | 1 | acyl-CoA oxidase isoform Aox4p (enzyme)
1 | 1 | acyl-CoA oxidase isoform Aox5p (enzyme)
